Patent US10215752B2, “Nanotube array for optical detection of protein-protein interactions” (MASSACHUSETTS INSTITUTE OF TECHNOLOGY, priority 2010, dated 2019)
Read-outs that look alike come from different tables or passages of the source.

Legend:
[1] = test system: SWNT-Chitosan lectin sensors; assay: Ensemble chitosan-SWNT sensor measurements, controls and overall response (lectin not stated); format: binding; conditions: FIG. 30a
Protocol: To increase the reproducibility of these sensors, an automated printing method of the chitosan gel was introduced (FIG. 35). Patterned glass microscope slides (Tekdon™) were inserted in a microarray printer (Digilab MicroSys System™), where the robotic head was programmed to dispense alternating layers of chitosan-SWNT (0.25 wt % chitosan (CHI), 1 vol % acetic acid, 30 ug/ml suspended (6,5) SWNT) and crosslinker (10 vol % glutaraldehyde). The suspended SWNT was made from Southwest Nanotechnologies, Inc. CoMoCAT® nanotubes sonicated in 0.25 wt % chitosan (CHI) and 1 vol % acetic acid for 45 minutes at 40% amplitude with a probe-tip sonicator (Cole Parmer, Model CV18). For each sensor spot ten alternating layers of SWNT-CHI and cross-linker were printed at […] per layer, resulting in a highly-uniform gel of 1 ul SWNT-CHI material. […]
A custom-made near infrared inverted microscope (Zeiss D.1 Observer™) setup allowed us to probe the fluorescent emissions of our SWNT sensors (FIG. 26a). […] The SWNT were excited by a 785 nm laser (B&W Tek™—495 mW) and the emission was sent to a spectrometer (Princeton Instruments Acton SpectraPro 2500i Spectrograph™) and accompanying nIR camera (Intervac MOSIR Camera 350™) The spectra were collected via WinSpec software (Princeton Instruments™) and analyzed with custom Matlab (Mathworks™) code. […]

[2] = biological target: T1, PA-IIL lectin (Pseudomonas aeruginosa, UniProt Q9HYN5); format: binding; conditions: for sensor response / cross response to PA-IIL lectin: controls and selectivity, FIG. 30a, FIG. 31
T1 construct: made in house; host or cells: E. coli BL21(DE3) Star
Protocol: (§1) To increase the reproducibility of these sensors, an automated printing method of the chitosan gel was introduced (FIG. 35). Patterned glass microscope slides (Tekdon™) were inserted in a microarray printer (Digilab MicroSys System™), where the robotic head was programmed to dispense alternating layers of chitosan-SWNT (0.25 wt % chitosan (CHI), 1 vol % acetic acid, 30 ug/ml suspended (6,5) SWNT) and crosslinker (10 vol % glutaraldehyde). The suspended SWNT was made from Southwest Nanotechnologies, Inc. CoMoCAT® nanotubes sonicated in 0.25 wt % chitosan (CHI) and 1 vol % acetic acid for 45 minutes at 40% amplitude with a probe-tip sonicator (Cole Parmer, Model CV18). […] The chips were printed in a humidified enclosure (85% RH) at 25° C. and allowed to cross-link overnight in the same environment. Nickel-NTA groups were introduced as previously reported^8; see FIG. 3. Briefly, the chips were washed with a dilute basic buffer (0.01 M NaOH) and water three times. Carboxylic acid groups were introduced to the chitosan wrapped SWNT by bathing the chips in succinic anhydride (0.1 M) overnight. The chips were then washed three times with water and the carboxylic acid groups were activated via N-(3-dimethylaminopropyl)-N′-ethylcarbo diimide hydrochloride (EDC-0.1M) and N-hydroxysuccinimide (NHS-0.1M). The chips were bathed in this solution for 2 hours at 25° C. and examined for the expected formation of bubbles. The chips were again washed and allowed to bathe in a solution of a linked tricarboxylic acid group (Nα,Nα-bis(carboxymethyl)-L-lysine a.k.a. NTA-33 mM) overnight. The chips were washed in water again and stored in a 100 mM solution of NiSO4 to allow maximum binding of nickel to the NTA chelating groups.
(§2) A custom-made near infrared inverted microscope (Zeiss D.1 Observer™) setup allowed us to probe the fluorescent emissions of our SWNT sensors (FIG. 26a). The chips were secured on the microscope stage and the objective (50×/0.7 Zeiss™) was pushed in contact with a blank portion of the glass slide (no SWNT-CHI) to obtain a 5 second background spectrum, which was subtracted from the response spectra. The objective was then moved under a SWNT-CHI gel spot and again pushed in contact with the glass slide. […] The SWNT were excited by a 785 nm laser (B&W Tek™—495 mW) and the emission was sent to a spectrometer (Princeton Instruments Acton SpectraPro 2500i Spectrograph™) and accompanying nIR camera (Intervac MOSIR Camera 350™) The spectra were collected via WinSpec software (Princeton Instruments™) and analyzed with custom Matlab (Mathworks™) code. To maximize signal stability, the spectrometer was cooled with liquid nitrogen two hours prior to experimentation and the laser was allowed to reach peak stability for two hours. […] Data was gathered in the form of emission intensity spectra (950-1250 nm) integrated for 5 seconds.
(§3) A typical experiment was run for approximately 1000 frames (at 5 seconds each) and included a few addition and washing steps to detect lectin-glycan binding (FIG. 26b). First NiSO4 was again added to ensure that the SWNT sensors were responsive and that the NTA chelating groups were fully loaded with Ni^++ groups. The nickel was then washed away with PBS three times, leaving 20 ul of PBS on the sensors. The His-tag lectin was then added to the sensor (20 μl at 2 mg/ml) and allowed to bind for 300 seconds.

[3] = biological target: T2, GafD lectin (Escherichia coli, UniProt Q47341); format: binding; set-up: made in house; host or cells: E. coli BL21(DE3) Star; conditions: for sensor response / cross response to GafD lectin: controls and selectivity, FIG. 30a, FIG. 31
Protocol: as §1, §2, §3

[4] = biological target: T2, GafD lectin; conditions: probe 1 mg/ml with GafD 3 mg/ml in solution
Protocol: The interaction between lection and glycan was analyzed by 15% native PAGE according to the method of Schagger and von Jagow with minor modifications. […] Briefly, blectrophoresis was performed using Mini Protean Electrophoresis system (Bio-Rad, USA™) for molecular interaction under nondenaturing conditions. Nonreduced protein/glycan samples in the sample buffer (20% glycerol, 200 mM Tris-HCl, pH 6.8, 0.05% bromophenol blue) were applied to the gel (gel buffer: 25 mM Tris-HCl, 200 mM glycine). Electrophoresis was performed at 80 V for 120 min. After electrophoresis, the protein bands were visualized by staining with Coomassie Brilliant Blue R-250.

[5] = biological target: T2, GafD lectin; conditions: 10 μM probe, sum of noise-reduced traces from 150 individual SWNT sensors
Protocol: A second custom microscope was used to collect emission intensities of single SWNT sensors (FIG. 27a). The SWNT-CHI gel was diluted to 3 μg/ml of SWNT and spin-coated (3000 rpm for 30 s on Make of SpinCoater™) on glass-bottom petridishes (MarTec Corp™). The petri-dishes were then placed on the microscope platform (Zeiss D.1 Observer) and the oil-immersed objective (Zeiss™ 100×/1.46) was focused on the SWNT sensors on the glass surface. The SWNT were excited by a 660 nm laser (Crystal Laser—100 mW) and the emission intensities were recorded by a nitrogen-cooled InGaAs array (Princeton Instruments™). […] These Tiff images were then analyzed using custom Matlab code (Mathworks™) to construct a intensity versus time trace for each SWNT sensor (FIG. 27c).
The use of single nanotube spectroscopy allowed this question to be addressed (FIG. 32). […] Using software developed in house, the movies of SWNT fluorescence were analyzed and intensity time traces were extracted for each of the individual SWNT sensors (FIG. 37).^24b An efficient algorithm for fitting large quantities of these time traces to embedded fluorescent levels was used.^35 Briefly, the algorithm used an optimized form of an established noise-reduction algorithm for biological experiments^36 to clean the traces (FIG. 37c). It then evaluated all-points histograms of each trace to determine the unique fluorescent states of each trace. […]

[6] = biological target: CDK4 (Homo sapiens, UniProt P11802); assay: Protein-protein interaction on SWNT/CHI array, Förster distance calculation; conditions: distance change after analyte protein CDK4, Förster equation
Protocol: Reaction mixtures for cell-free protein expression were added to each array wells. The fluorescent intensities of each SWNT/CHI well were taken to track the intensity changes. To initiate protein synthesis, 1 μl PCR-amplified DNAs were added to each well a humidified chamber at 37° C. for 2 hours. The arrays were washed three times for 10 min each with PBS buffer (pH 7.4, 100 mM) at RT and then PL spectra were taken. To analyze protein-protein interaction on SWNT/XHI array, anti-Histag antibody or cell-free expressed protein mixtures were added to each well and then PL spectra were taken to compare the intensity change.
Near-infrared photoluminescence spectra were acquired using 785 nm excitation and an Acton SP-150 spectrograph coupled to a Princeton instruments OMA V InGaAs detector or with Kaiser Holospec f/1.8 Imaging Spectrograph (Kaiser Optical).

[7] = from concentration dependent curves, analyte to PA-IIL
[8] = after Ni2+ and GafD lectin loading, FIG. 29a-b
[9] = from concentration dependent curves, analyte to GafD

T2 sequence (Q47341 23-343): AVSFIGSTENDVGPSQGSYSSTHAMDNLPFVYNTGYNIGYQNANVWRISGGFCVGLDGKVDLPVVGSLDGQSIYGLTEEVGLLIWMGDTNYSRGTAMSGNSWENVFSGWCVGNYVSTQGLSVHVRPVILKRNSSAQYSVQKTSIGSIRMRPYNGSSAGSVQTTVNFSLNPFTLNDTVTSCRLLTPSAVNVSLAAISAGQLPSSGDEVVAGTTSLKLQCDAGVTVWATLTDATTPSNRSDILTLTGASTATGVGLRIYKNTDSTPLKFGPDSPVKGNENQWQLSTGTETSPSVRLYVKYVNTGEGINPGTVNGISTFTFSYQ
T1 sequence (Q9HYN5 entry or part of it): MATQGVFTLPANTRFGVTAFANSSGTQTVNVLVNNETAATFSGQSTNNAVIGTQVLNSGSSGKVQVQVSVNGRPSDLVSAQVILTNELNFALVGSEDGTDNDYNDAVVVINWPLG
Sequence of CDK4 (P11802 with tags, fused parts or gaps): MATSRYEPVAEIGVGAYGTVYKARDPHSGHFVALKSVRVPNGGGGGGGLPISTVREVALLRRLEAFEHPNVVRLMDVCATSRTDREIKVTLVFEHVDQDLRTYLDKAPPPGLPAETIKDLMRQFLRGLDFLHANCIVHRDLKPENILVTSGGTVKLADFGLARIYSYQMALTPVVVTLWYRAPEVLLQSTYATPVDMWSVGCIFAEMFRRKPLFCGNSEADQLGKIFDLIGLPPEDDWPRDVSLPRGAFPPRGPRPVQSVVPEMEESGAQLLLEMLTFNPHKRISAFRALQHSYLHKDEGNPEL

O=C(O)CCCC[C@@H]1SC[C@@H]2NC(=O)N[C@@H]21 [biotin]
sensor response of controls [1]: negligible response

Fuc-Strept: model glycoprotein probe: biotinylated fucose glycan bound to streptavidin
sensor response / cross response to PA-IIL lectin [2]: positive response
Kf [2, 7]: 0.0001 µM/s
sensor response / cross response to GafD lectin [3]: small affinity

Fucα1-2Galβ1-4Glcβ-SpNH-LC-LC-Biotin [Fuc-Biotin]
Kd [2, 7]: 106 µM
Kf [2, 7]: 7e-05 µM/s
kr [2, 7]: 0.0074 s⁻¹

GlcNAc-Strept: model glycoprotein probe: biotinylated GlcNAc glycan bound to streptavidin
complex formation on native PAGE gel [4]: bound complex
sensor response / cross response to PA-IIL lectin [2]: negligible binding
signal modulation (response) [5]: ~3.5%
time response (loading curve) upon analyte addition [3, 8]: SPR-like loading curve was observed
sensor response / cross response to GafD lectin [3]: positive response
Kf [3, 9]: 0.0003 µM/s
kr [3, 9]: 0.015 s⁻¹

GlcNAcβ-SpNH-LC-LC-Biotin [GlcNAc-Biotin]
time response (loading curve) upon analyte addition [3, 8]: loading curve was observed
Kd [3, 9]: 19 µM
Kf [3, 9]: 0.0002 µM/s
kr [3, 9]: 0.0037 s⁻¹

blank streptavidin: streptavidin (Sigma Aldrich SO677) without glycan
sensor response of controls [1]: negligible response
time response (loading curve) upon analyte addition ([3]; GafD lectin biotinylated, positive control, FIG. 29c): expected loading curve was observed
time response (loading curve) upon analyte addition [3, 8]: No loading curve was observed

p16: human derived protein (ExPASy P42771), on-chip cell-free expressed with His-tag
Δd2 [6]: 0.05174
